These results are taken from publication PMC7772775, “The uncharacterized protein FAM47E interacts with PRMT5 and regulates its functions” (Life Science Alliance, 2020).

The target in the assay is T1, recombinant His-tagged PRMT5 (human, UniProt O14744-1 1-637).
T1 construct: Protein arginine methyltransferase 5 (PRMT5), full length, NM_006109.4; Cloned in pET28a; also called His-PRMT5; His-RMT5; source: bacterial expression, purified
Put plainly: pull-down; 50 ug GST or GST-FAM47E on glutathione sepharose 4B, blocked with 5% BSA; 25 ug His-PRMT5 in 10 mM Tris, 150 mM NaCl, 0.5 mM EDTA, 0.1% NP40, 3 h at 4°C; washed with 300 mM NaCl, 0.5% NP40; probed with His antibody. To be noted: both partners purified.

T1 sequence (O14744 whole entry): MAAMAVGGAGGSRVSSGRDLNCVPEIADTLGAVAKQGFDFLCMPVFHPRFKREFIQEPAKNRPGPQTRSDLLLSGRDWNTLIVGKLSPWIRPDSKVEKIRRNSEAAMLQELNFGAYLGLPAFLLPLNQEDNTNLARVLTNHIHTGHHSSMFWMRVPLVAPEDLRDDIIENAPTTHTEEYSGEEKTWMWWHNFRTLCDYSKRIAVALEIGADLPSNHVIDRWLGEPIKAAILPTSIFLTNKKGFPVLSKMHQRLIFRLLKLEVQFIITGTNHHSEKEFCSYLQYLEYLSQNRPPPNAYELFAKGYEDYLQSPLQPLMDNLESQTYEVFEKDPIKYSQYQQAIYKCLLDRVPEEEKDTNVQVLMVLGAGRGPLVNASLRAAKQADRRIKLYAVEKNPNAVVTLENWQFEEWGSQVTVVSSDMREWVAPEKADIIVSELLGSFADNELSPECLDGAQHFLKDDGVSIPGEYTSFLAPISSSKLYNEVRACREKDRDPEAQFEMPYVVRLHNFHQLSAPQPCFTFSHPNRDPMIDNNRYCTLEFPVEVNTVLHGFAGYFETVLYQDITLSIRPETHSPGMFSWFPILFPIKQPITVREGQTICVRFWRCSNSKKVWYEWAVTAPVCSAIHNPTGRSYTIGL

B1: recombinant GST-tagged FAM47E (natural protein, human, UniProt Q6ZV65-2 1-295, looked up)
chain: MQMSVPCVLSSLQNHEPNKPLFTTQSQLLSKVLEVLDPDRKLEDTWAYCQDTRKGMKEPTKLLKKHSTQVYLGPSKKTSVSNAGQWLYEEKPHKMDLLHENGPRPGLHENVCKAVSDFCKWVTTFGISDIDEEFILKQFDIDYETKPSHDALHTMKLNQVPLELKRSVGLSKLQETEFFQKLGYERKLQKPQNPYKPKWVKMRYGAWYLNPKLWKKQRVDEPLVDPEVSHKAQEENFKKELQEQEELLADLHGTVAFKDFILSRGYRTPRFLENMYIGKECKRACNKTPIKRTQA
notes: Cloned in pGEX-6P2; also called GST-FAM47E; pGEX-FAM47E; source: bacterial expression, purified
As for B1, the binding result is “binds”.
